Assay results taken from patent US20090118184A1 (UNIVERSITY OF ROCHESTER, published 2009).

Tests used:
Experiment in all cases: cell-based or functional assay
[1] = target: T1, factor VIIIa A1/A3C1C2 dimer, S1791A (human, UniProt P00451 20-391; P00451 1709-2351)
T1 sequence 1: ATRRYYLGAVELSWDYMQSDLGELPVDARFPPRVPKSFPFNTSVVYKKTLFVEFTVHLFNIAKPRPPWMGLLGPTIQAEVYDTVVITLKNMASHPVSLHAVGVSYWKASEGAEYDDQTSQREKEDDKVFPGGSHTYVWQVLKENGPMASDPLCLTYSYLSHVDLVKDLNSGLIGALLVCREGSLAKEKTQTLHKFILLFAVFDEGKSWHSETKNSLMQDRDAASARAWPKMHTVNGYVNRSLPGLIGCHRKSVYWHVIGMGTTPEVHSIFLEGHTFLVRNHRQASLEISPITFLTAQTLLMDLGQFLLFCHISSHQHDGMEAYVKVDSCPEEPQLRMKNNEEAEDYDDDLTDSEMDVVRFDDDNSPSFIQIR
T1 sequence 2: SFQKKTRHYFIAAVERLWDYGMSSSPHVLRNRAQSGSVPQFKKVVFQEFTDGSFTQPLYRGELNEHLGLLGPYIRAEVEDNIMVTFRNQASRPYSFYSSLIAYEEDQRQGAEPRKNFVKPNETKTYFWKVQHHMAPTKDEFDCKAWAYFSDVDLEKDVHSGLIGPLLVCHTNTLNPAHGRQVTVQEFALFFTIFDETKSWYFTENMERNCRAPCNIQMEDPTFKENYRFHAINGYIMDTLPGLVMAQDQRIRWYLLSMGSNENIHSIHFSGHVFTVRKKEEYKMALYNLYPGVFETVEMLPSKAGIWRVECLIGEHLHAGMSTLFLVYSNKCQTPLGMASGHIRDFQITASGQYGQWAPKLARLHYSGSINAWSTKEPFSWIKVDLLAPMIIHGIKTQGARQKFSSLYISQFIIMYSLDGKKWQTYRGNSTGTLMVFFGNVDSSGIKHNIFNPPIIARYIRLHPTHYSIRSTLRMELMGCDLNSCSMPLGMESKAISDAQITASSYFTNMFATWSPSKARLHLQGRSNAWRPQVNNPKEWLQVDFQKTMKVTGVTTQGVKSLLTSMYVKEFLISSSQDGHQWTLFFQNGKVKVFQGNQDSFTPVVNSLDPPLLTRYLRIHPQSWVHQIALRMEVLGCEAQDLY

[2] = target: T2, factor VIIIa A1/A3C1C2 dimer, Y1792F (human, UniProt P00451 20-391; P00451 1709-2351)
T2 sequence 1: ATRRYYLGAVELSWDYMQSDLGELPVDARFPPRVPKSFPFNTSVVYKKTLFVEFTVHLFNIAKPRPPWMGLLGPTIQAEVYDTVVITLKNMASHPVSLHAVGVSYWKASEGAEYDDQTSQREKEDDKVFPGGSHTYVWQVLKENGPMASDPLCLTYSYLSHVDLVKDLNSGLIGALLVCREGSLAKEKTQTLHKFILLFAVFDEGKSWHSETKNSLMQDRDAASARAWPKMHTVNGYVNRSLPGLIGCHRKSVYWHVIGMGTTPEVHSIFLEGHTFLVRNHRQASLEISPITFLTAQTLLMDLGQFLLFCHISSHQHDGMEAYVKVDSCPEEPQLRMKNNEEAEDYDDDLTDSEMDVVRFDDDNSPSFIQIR
T2 sequence 2: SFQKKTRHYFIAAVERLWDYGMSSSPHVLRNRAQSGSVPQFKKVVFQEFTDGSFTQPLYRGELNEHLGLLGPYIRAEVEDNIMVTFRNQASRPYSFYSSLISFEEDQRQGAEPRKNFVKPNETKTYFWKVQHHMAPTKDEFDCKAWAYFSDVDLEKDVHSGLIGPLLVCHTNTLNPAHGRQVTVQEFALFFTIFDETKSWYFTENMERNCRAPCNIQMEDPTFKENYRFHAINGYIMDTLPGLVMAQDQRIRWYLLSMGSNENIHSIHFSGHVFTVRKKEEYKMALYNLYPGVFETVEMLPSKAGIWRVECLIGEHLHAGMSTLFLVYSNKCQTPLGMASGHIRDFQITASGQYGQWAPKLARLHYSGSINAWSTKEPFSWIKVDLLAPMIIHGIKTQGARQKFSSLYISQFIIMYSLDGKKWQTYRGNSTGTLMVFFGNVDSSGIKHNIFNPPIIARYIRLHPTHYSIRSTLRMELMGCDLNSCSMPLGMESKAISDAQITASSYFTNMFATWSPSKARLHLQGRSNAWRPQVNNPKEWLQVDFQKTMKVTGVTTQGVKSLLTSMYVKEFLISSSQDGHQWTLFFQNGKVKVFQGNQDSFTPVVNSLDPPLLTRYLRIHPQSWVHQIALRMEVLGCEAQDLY

[3] = target: T3, factor VIIIa A1/A3C1C2 dimer, Y1786F (human, UniProt P00451 20-391; P00451 1709-2351)
T3 sequence 1: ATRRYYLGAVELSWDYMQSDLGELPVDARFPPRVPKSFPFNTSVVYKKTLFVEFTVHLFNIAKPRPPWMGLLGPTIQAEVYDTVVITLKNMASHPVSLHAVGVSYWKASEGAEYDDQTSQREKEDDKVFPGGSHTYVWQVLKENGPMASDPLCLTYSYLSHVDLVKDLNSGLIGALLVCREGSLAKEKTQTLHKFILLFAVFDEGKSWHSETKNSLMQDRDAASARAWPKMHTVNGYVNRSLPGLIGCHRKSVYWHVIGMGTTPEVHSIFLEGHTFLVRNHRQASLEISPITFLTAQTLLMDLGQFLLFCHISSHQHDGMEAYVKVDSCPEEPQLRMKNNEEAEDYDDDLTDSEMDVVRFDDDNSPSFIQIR
T3 sequence 2: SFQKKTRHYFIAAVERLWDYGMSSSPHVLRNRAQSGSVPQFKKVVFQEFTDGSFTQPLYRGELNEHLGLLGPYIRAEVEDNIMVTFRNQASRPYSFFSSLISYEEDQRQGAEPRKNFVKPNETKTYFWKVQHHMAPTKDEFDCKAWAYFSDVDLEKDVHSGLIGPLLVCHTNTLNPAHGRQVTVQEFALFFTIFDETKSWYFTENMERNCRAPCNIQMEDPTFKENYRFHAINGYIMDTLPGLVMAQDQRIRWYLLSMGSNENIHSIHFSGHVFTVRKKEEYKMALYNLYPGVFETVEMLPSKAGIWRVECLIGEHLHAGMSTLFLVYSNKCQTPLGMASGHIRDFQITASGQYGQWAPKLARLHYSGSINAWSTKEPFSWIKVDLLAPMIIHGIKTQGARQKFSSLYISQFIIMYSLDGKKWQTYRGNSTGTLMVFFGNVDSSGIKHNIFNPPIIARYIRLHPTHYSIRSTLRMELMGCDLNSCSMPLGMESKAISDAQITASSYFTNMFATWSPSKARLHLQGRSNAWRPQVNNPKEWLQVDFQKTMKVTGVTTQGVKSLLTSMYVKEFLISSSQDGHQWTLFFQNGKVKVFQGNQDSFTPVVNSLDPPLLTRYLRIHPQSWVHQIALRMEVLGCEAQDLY

B1: factor VIIIa A2 subunit, wild type (other)
chain: SVAKKHPKTWVHYIAAEEEDWDYAPLVLAPDDRSYKSQYLNNGPQRIGRKYKKVRFMAYTDETFKTREAIQHESGILGPLLYGEVGDTLLIIFKNQASRPYNIYPHGITDVRPLYSRRLPKGVKHLKDFPILPGEIFKYKWTVTVEDGPTKSDPRCLTRYYSSFVNMERDLASGLIGPLLICYKESVDQRGNQIMSDKRNVILFSVFDENRSWYLTENIQRFLPNPAGVQLEDPEFQASNIMHSINGYVFDSLQLSVCLHEVAYWYILSIGAQTDFLSVFFSGYTFKHKMVYEDTLTLFPFSGETVFMSMENPGLWILGCHNSDFRNRGMTALLKVSSCDKNTGDYYEDSYEDISAYLLSKNNAIEPR
[1]
  Factor VIIIa decay rate relative to wild type, FIXa (+): 1.85 relative to wild type
  Factor VIIIa decay rate, FIXa (+): 0.0208 min⁻¹
[2]
  Factor VIIIa decay rate relative to wild type, FIXa (+): 38.4 relative to wild type
  Factor VIIIa decay rate relative to wild type, FIXa (-): 11.5 relative to wild type
  Factor VIIIa decay rate, FIXa (+): 0.433 min⁻¹
  Factor VIIIa decay rate, FIXa (-): 0.724 min⁻¹
[3]
  Factor VIIIa decay rate relative to wild type, FIXa (+): 20.9 relative to wild type
  Factor VIIIa decay rate relative to wild type, FIXa (-): 17 relative to wild type
  Factor VIIIa decay rate, FIXa (+): 0.236 min⁻¹
  Factor VIIIa decay rate, FIXa (-): 1.07 min⁻¹
